Measurements published in publication PMC4920195, “Non-Smc element 5 (Nse5) of the Smc5/6 complex interacts with SUMO pathway components” (Biology Open, 2016).

What was measured:
Test in all cases: two-hybrid; LexA bait and B42 activating domain prey, galactose-induced; liquid culture, quantitative beta-galactosidase activity of permeabilized cells with reporter pSH18034, wild-type cells (JC470)
[1] = target: Nse5-ts2-LexA (S. cerevisiae) (UniProt Q03718)
[2] = target: T1, Nse5-LexA (wild type) (S. cerevisiae, UniProt Q03718 1-556); settings: partners not purified
T1 construct: Nse5 of Saccharomyces cerevisiae, NSE5 gene cloned into a pEG202-derived bait plasmid; also called Non-Smc element 5; J-038; source: yeast two-hybrid fusion, galactose-inducible promoter, in S. cerevisiae
T1 sequence (looked up): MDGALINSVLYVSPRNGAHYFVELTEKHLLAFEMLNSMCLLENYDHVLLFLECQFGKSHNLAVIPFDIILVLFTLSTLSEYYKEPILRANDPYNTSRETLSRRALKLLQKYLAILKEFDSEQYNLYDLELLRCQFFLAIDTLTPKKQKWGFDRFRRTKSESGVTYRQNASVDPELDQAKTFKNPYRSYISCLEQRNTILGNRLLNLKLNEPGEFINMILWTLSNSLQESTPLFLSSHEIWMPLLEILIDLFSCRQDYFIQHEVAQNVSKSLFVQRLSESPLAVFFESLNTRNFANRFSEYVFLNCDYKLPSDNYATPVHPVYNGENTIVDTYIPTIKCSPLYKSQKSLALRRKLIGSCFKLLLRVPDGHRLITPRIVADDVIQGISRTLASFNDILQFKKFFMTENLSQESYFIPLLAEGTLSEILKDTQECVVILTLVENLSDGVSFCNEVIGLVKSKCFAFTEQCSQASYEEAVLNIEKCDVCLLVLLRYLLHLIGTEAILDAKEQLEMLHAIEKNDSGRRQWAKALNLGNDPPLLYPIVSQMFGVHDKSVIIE

[3] = target: T2, Nse5-Y111H-LexA (S. cerevisiae, UniProt Q03718 1-556, Y111H); settings: partners not purified
T2 construct: Nse5 of Saccharomyces cerevisiae, point mutant; also called J-132; source: yeast two-hybrid fusion, galactose-inducible promoter, in S. cerevisiae
T2 sequence (looked up): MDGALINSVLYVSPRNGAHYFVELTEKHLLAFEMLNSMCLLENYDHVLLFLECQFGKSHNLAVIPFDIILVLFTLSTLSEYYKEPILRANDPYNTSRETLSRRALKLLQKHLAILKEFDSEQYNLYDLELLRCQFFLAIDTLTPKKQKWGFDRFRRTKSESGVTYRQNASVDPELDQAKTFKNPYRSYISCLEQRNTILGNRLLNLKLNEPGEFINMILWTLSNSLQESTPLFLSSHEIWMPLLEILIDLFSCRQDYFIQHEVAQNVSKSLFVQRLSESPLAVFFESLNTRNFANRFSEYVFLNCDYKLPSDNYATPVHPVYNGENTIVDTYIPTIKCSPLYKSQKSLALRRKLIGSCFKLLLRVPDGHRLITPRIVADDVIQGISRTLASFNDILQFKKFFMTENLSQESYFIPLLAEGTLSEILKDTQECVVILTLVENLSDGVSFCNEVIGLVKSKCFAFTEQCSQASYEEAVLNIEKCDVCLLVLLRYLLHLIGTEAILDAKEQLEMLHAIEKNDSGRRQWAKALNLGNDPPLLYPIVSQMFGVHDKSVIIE

[4] = target: T3, Nse5-Y123H-LexA (S. cerevisiae, UniProt Q03718 1-556, Y123H); settings: partners not purified
T3 construct: Nse5 of Saccharomyces cerevisiae, point mutant; also called J-131; source: yeast two-hybrid fusion, galactose-inducible promoter, in S. cerevisiae
T3 sequence (looked up): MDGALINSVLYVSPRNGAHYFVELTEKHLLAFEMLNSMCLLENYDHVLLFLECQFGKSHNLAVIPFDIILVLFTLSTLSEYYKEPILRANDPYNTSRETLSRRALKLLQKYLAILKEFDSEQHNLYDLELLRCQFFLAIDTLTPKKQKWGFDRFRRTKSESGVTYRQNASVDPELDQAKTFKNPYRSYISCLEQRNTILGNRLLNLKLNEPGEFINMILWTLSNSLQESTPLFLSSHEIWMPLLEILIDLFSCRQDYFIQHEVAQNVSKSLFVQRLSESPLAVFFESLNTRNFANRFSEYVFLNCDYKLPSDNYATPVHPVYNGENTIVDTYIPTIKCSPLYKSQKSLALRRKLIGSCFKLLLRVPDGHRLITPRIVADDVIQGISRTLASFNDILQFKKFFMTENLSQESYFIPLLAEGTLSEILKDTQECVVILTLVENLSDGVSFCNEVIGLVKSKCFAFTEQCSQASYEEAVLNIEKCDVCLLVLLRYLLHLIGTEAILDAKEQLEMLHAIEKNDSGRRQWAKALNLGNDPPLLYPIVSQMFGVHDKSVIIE

[5] = target: T4, Nse5-H319Y-LexA (S. cerevisiae, UniProt Q03718 1-556, H319Y); settings: partners not purified
T4 construct: Nse5 of Saccharomyces cerevisiae, point mutant; also called J-120; source: yeast two-hybrid fusion, galactose-inducible promoter, in S. cerevisiae
T4 sequence (looked up): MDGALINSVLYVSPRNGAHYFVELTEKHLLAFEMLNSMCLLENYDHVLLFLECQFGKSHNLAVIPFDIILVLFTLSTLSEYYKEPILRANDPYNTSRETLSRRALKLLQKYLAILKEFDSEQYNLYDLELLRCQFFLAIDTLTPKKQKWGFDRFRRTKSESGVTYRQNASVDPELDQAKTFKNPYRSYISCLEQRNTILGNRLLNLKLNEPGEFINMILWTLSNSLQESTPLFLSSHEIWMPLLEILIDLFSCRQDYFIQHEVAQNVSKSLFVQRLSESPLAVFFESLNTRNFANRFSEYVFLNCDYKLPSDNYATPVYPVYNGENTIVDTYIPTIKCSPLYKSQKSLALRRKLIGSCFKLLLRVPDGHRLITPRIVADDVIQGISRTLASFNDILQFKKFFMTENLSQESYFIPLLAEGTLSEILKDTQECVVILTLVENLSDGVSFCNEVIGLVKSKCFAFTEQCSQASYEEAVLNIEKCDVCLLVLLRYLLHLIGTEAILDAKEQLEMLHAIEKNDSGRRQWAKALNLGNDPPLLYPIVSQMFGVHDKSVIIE

Nse6-AD (natural protein) gave a two-hybrid signal as percent of wild-type Nse5 [1] of 63%.

B1: Ubc9-AD (wild type) (enzyme, S. cerevisiae, UniProt P50623 1-157, looked up)
chain: MSSLCLQRLQEERKKWRKDHPFGFYAKPVKKADGSMDLQKWEAGIPGKEGTNWAGGVYPITVEYPNEYPSKPPKVKFPAGFYHPNVYPSGTICLSILNEDQDWRPAITLKQIVLGVQDLLDSPNPNSPAQEPAWRSFSRNKAEYDKKVLLQAKQYSK
notes: Ubc9 of Saccharomyces cerevisiae, UBC9 cloned into a pJG4-6-derived prey vector; also called E2 conjugating enzyme; J-042; source: yeast two-hybrid fusion, galactose-inducible promoter, in S. cerevisiae
B1 was tested, and the “two-hybrid signal as fold of the interactions with Siz1 and Siz2” value [2] was about 5 fold.

B2: Smt3-AD (natural protein, S. cerevisiae, UniProt Q12306 1-101, looked up)
chain: MSDSEVNQEAKPEVKPEVKPETHINLKVSDGSSEIFFKIKKTTPLRRLMEAFAKRQGKEMDSLRFLYDGIRIQADQTPEDLDMEDNDIIEAHREQIGGATY
notes: Smt3 (SUMO) of Saccharomyces cerevisiae, SMT3 cloned into a pJG4-6-derived prey vector; also called SUMO; J-043; source: yeast two-hybrid fusion, galactose-inducible promoter, in S. cerevisiae
B2 was tested, and the “two-hybrid signal as percent of wild-type Nse5” value (“two-hybrid signal as percent” for short) [3] was 18%, the “two-hybrid signal as percent” value [4] was 75% and the “two-hybrid signal as percent” value [5] was 40%.
